From patent US20190062438A1 (CSL, published 2019)
Where a chain is given by its changes, count along the chain named. Where two headings read alike, the source gives them in different places. Values belong to the binder of their own block, whether it stands above or below them.

Assays:
[1] = molecular target: T1, soluble Homo sapiens CD131 comprising a C-terminal 6xHis tag (human, UniProt P32927 17-438); assay: SPR, Fab over captured shCD131
T1 construct: truncated after Ser438, C-terminal 6xHis; also called shCD131; shβc
T1 sequence: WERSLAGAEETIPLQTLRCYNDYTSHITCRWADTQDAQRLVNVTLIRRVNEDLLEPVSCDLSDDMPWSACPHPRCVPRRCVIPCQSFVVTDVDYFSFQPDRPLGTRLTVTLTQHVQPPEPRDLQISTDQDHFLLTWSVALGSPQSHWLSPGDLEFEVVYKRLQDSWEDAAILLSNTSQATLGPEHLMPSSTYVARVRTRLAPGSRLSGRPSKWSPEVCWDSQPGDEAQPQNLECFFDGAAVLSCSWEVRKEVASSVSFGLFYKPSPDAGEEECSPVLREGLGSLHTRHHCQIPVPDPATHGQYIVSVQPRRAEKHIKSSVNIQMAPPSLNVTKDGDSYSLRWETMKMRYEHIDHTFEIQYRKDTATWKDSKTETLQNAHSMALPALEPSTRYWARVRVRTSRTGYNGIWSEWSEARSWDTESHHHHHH
Protocol: (§1) Binding kinetics were measured using SPR with a BIAcore™ A-100 instrument (GE Healthcare Life Sciences). An anti-C-terminal Hexa-His antibody (3H3) was immobilized on spots 1, 2, 4 and 5 of each flow cell of a CM-5 sensor chip (GE Healthcare Life Sciences) using amine-coupling chemistry (116). […] As shβc is a dimer, kinetics assays were performed with shβc captured on the sensor surface, and purified Fab injected as the analyte. Avidity effects were avoided by the use of Fab rather than whole IgG.
(§2) shCD131 was captured on spots 1 and 5 of each flow cell for 2 minutes at a concentration of 0.4 μg/ml. […] For some analysis purified Fab was injected over each flow cell for 3 minutes and dissociation was monitored for a further 10 minutes. Regeneration of the surface was performed after each cycle with a 40 second injection of 25 mM glycine, pH 2.0. The analysis was performed with Fabs at several concentrations between 100 and 0.31 nM, with each concentration analyzed twice and in random order. The analysis was performed at a flow rate of 30 μl/min in HBS-EP buffer (10 mM Hepes, 150 mM NaCl, 3 mM EDTA, 0.005% Tween 20, pH 7.4) at 37° C. Responses from spots 2 and 4 of each flow cell, (in which shβc was not captured, but otherwise treated identically), were subtracted from those of spots 1 and 5 respectively to produce reference subtracted data. Reference subtracted responses from a blank injection comprising buffer alone were subtracted from the resultant sensorgrams to produce double referenced data suitable for kinetic analysis. Double-referenced sensorgrams were fitted using non-linear regression to a model describing 1:1 kinetics, including a term for mass transport limitation. The Rₘₐₓ value was fitted locally to account for slight deviations in the level of sCD131 captured, with association rate (kₐ), dissociation rate (kd) and equilibrium dissociation constant (KD) fitted globally.

[2] = molecular target: T1, soluble Homo sapiens CD131 comprising a …; assay: SPR, Fab over captured shCD131; remark: listed apart in the source
Protocol: as §1, §2

human CD131 [3] = molecular target: T2, human CD131 (human, UniProt P32927 17-897); assay: cell-based or functional assay
T2 sequence: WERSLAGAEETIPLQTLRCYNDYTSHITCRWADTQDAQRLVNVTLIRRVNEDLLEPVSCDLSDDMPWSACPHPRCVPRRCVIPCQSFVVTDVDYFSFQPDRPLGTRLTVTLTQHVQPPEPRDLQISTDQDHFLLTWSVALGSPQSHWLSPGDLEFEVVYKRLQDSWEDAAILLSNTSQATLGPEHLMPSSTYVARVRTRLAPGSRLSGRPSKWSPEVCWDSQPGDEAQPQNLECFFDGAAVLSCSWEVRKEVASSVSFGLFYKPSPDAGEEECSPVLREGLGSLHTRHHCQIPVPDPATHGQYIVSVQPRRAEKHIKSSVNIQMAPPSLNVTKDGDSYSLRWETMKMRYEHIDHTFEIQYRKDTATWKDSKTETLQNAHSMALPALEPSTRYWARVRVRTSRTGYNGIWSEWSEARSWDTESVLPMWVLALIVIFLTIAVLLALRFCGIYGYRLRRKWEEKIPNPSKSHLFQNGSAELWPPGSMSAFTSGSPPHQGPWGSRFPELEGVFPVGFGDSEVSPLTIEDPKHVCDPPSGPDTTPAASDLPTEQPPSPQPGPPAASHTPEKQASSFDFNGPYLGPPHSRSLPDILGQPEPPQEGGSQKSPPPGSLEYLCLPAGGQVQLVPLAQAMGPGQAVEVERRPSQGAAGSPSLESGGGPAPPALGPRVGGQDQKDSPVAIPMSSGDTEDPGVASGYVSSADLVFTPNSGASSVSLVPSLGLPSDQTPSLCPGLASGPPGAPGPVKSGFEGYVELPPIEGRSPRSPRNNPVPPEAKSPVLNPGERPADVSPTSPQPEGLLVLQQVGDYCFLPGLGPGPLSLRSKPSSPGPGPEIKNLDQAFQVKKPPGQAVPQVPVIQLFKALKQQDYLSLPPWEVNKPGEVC

human CD131 [4] = molecular target: T2, human CD131; assay: cell-based or functional assay; remark: listed apart in the source
human CD131 [5] = molecular target: T2, human CD131; assay: cell-based or functional assay; remark: listed apart in the source
human CD131 [6] = molecular target: T2, human CD131; assay: saturation binding of radio-iodinated Fab to TF1 cells (first of three values in the cell)
Protocol: (§3) Cytokines and antibodies were radio-iodinated using Pierce Pre-Coated Iodination tubes (Thermo Scientific) according to the manufacturer's instructions. MAb binding to cells expressing hβc was determined by incubating 1-2×10⁶ cells with radio-iodinated mAb at a range of concentrations at 23° C. for 1-2 hours with gentle mixing. Cell suspensions were then centrifuged through fetal calf serum (FCS) and radioactivity associated with the cells pellets was assessed by counting in a Wizard² 2470 Automatic Gamma Counter (Perkin Elmer, Rowville, VIC, Australia). Non-specific binding was assessed for each radio-iodinated mAb in the presence of at least a 500-fold excess of unlabeled mAb. […] Competition binding assays were performed essentially as previously described (41). Briefly 1-2×10⁶ cells were incubated with mAb or cytokine competitor at a range of concentrations at 4° C. for 45 minutes with gentle mixing. Radio-iodinated cytokine or mAb was then added and the mixture incubated at 23° C. for a further 1-2 hours with gentle mixing. Cell suspensions were then centrifuged through FCS and radioactivity associated with the cells pellets assessed by counting.

human CD131 [7] = molecular target: T2, human CD131; assay: saturation binding of radio-iodinated Fab to TF1 cells (third of three values in the cell)
Protocol: as §3

human CD131 [8] = molecular target: T2, human CD131; assay: saturation binding of radio-iodinated Fab to TF1 cells (second of three values in the cell)
Protocol: as §3

[9] = molecular target: T1, soluble Homo sapiens CD131 comprising a …; assay: SPR, kinetics, Fab over captured shCD131
human CD131 [10] = molecular target: T2, human CD131; assay: saturation binding of radio-iodinated Fab to cells; row 'Average for all cells (±SEM)' (neutrophils, TF1 cells)
human CD131 [11] = molecular target: T2, human CD131; assay: saturation binding of radio-iodinated Fab on human neutrophils
Protocol: Each point is the mean of duplicate determinations of cell-bound radio-iodinated antibody after subtraction of non-specific binding. Data from a single neutrophil binding experiment and a representative eosinophil binding experiment, n=2 is shown.
as §3, with “Radio-iodinated cytokine or mAb was then added and the mixture incubated at 23° C. for a further 1-2 hours with gentle mixing.” left out

human CD131 [12] = molecular target: T2, human CD131; assay: competition binding on TF-1 cells: cells pre-incubated with the cytokine, then equilibrated with 85 pM radio-iodinated 9A2-VR24.29; cell-bound c.p.m.
Protocol: Each point is the mean of duplicate determinations of cell-bound radioiodinated cytokine and error bars represent the standard deviation.
as §3

Kd [1]: 0.27 nM
koff [1]: 0.00059 s⁻¹
kon [1]: 3e+06 M⁻¹ s⁻¹
Kd [2]: 0.27 nM
fold improvement in binding affinity over parental 9A2 [2]: ~180 fold
koff [2]: 0.00059 s⁻¹
kon [2]: 3e+06 M⁻¹ s⁻¹
B5: 9A2-VR39 Fab (Fab, V domains shown)
VH: EVQLLESGGGLVQPGGSLRLSCAASGFTFSHYHMLWVRQAPGKGLEWVSSINGRGRVTYYADSVKGRFTISRDNSKNTLYLQMNSLRAEDTAVYYCARFYDSFFDIWGQGTMVTVSS
VL: DIQMTQSPSSVSASVGDRVTITCRASQGISSWLAWYQQKPGKAPKLLIYAASSLQSGVPSRFSGSGSGTDFTLTISSLQPEDFATYYCQQANSFPITFGQGTRLEIKR
notes: recombinant Fab

IC50 (read off the curve) (human CD131 [12]): ~0.03 nM
B6: recombinant human GM-CSF (ligand, UniProt P04141 18-144, looked up)
chain: APARSYYSPSTQPWEHVNAIQEARRLLNLSRDTAAEMNETVEVISEMFDLQEPTCLQTRLELYKQGLRGSLTKLKGPLTMMASHYKQHCPPTPETSCATQIITFESFKENLKDFLLVIPFDCWEPVQE
modifications: radio-iodinated where used as label
notes: position probably counts on mature GM-CSF

Continued, binder first:

B1: 9A2-VR24 Fab (Fab, V domains shown)
VH: B5 VH with S30P, H31W, H33R, M34V, L35H, N52R, G53S, R54S, R56G, V57F
VL: B5 VL
notes: recombinant Fab
Kd [1]: 0.46 nM
koff [1]: 0.0011 s⁻¹
kon [1]: 2.3e+06 M⁻¹ s⁻¹
Kd [2]: 0.46 nM
fold decrease in dissociation rate (kd) compared to parental 9A2 [2]: 87 fold
fold decrease in the dissociation rate (kd) compared to parental 9A2 [2]: 87 fold
fold higher affinity compared to parental 9A2 [2]: 106 fold
koff [2]: 0.0011 s⁻¹
kon [2]: 2.3e+06 M⁻¹ s⁻¹

B2: 9A2-VR39 (antibody, V domains shown)
VH: B5 VH
VL: B5 VL
IC50 GM-CSF, TF-1 proliferation (human CD131 [3]): 0.88 nM
pStat5 IC50 GM-CSF, TF-1 bla reporter (human CD131 [3]): 4.1 nM
fold improvement in GM-CSF potency over parental 9A2 (human CD131 [4]): 518 fold
IC50 GM-CSF, TF-1 proliferation (human CD131 [5]): 0.88 nM

B3: 9A2-VR24 (antibody, V domains shown)
VH: B5 VH with S30P, H31W, H33R, M34V, L35H, N52R, G53S, R54S, R56G, V57F
VL: B5 VL
IC50 GM-CSF, TF-1 proliferation (human CD131 [3]): 2.5 nM
IC50 IL-3, TF-1 proliferation (human CD131 [3]): 0.726 nM
IC50 IL-5, TF-1 proliferation (human CD131 [3]): 23.5 nM
pStat5 IC50 GM-CSF, TF-1 bla reporter (human CD131 [3]): 8.6 nM
fold potency improvement (GM-CSF) over parental 9A2 (human CD131 [4]): 182 fold
IC50 GM-CSF, TF-1 proliferation (human CD131 [5]): 2.5 nM

B4: 9A2-VR24.29 Fab (Fab, V domains shown)
VH: EVQLLESGGGLVQPGGSLRLSCAASGFTFPWYRVHWVRQAPGKGLEWVSSIRSSGGFPYYNYKVKGRFTISRDNSKNTLYLQMNSLRAEDTAVYYCARFYDSFFDIWGQGTMVTVSS
VL: B5 VL
notes: recombinant Fab; also called recombinant Fab fragment of 9A2-VR24.29
Kd (human CD131 [6]): 0.656 nM
Kd (human CD131 [7]): 0.522 nM
Kd (human CD131 [8]): 0.668 nM
Kd [9]: 0.1 nM
Kd (human CD131 [10]): 0.569 nM
Kd [1]: 0.1 nM
koff [1]: 0.000418 s⁻¹
kon [1]: 4e+06 M⁻¹ s⁻¹
Kd (human CD131 [11]): 0.384 nM
